Laboratory results taken from patent publication US20080020978A1 (Amgen, published 2008).
Square brackets hold non-standard residues; d marks the D form. 1Nal = N[C@@H](Cc1cccc2ccccc12)C(=O)O; Tic = O=C(O)[C@@H]1Cc2ccccc2CN1; Cit = NC(=O)NCCC[C@H](N)C(=O)O; Nva = CCC[C@H](N)C(=O)O

Molecular target: CGRP1 receptor (CRLR/RAMP1 complex) of human neuroblastoma SK-N-MC cells (human, UniProt Q16602 23-461; O60894 27-148)
Assay: cell-based or functional assay

Chain of CGRP1 receptor (CRLR/RAMP1 complex) of human neuroblastoma SK-N-MC cells (Q16602 23-461, chain 1 of 2): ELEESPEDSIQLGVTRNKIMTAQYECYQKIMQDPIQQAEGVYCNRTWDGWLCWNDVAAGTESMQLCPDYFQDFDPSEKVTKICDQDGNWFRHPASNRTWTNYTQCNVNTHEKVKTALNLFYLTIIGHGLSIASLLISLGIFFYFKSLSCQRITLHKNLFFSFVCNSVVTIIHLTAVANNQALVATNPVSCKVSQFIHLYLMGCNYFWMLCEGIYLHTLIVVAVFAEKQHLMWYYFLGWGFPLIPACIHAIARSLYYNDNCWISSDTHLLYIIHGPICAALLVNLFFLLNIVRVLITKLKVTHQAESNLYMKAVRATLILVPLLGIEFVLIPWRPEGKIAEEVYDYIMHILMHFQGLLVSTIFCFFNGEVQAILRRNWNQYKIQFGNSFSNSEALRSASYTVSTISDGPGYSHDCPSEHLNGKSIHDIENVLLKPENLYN
Chain of CGRP1 receptor (CRLR/RAMP1 complex) of human neuroblastoma SK-N-MC cells (O60894 27-148, chain 2 of 2): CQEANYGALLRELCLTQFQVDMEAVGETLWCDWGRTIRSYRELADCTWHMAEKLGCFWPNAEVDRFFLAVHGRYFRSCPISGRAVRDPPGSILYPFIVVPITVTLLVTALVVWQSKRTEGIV

| Binder | Peptide IC50 | PEG-peptide IC50 |
| --- | --- | --- |
| Ac-WVTH[Cit]LAGLASRPGGVVRKNFVPTDVGPFAF-NH2 (SMILES CC(=O)N[C@@H](Cc1c[nH]c2ccccc12)C(=O)N[C@H](C(=O)N[C@H](C(=O)N[C@@H](Cc1c[nH]cn1)C(=O)N[C@@H](CCCNC(N)=O)C(=O)N[C@@H](CC(C)C)C(=O)N[C@@H](C)C(=O)NCC(=O)N[C@@H](CC(C)C)C(=O)N[C@@H](C)C(=O)N[C@@H](CO)C(=O)N[C@@H](CCCNC(=N)N)C(=O)N1CCC[C@H]1C(=O)NCC(=O)NCC(=O)N[C@H](C(=O)N[C@H](C(=O)N[C@@H](CCCNC(=N)N)C(=O)N[C@@H](CCCCN)C(=O)N[C@@H](CC(N)=O)C(=O)N[C@@H](Cc1ccccc1)C(=O)N[C@H](C(=O)N1CCC[C@H]1C(=O)N[C@H](C(=O)N[C@@H](CC(=O)O)C(=O)N[C@H](C(=O)NCC(=O)N1CCC[C@H]1C(=O)N[C@@H](Cc1ccccc1)C(=O)N[C@@H](C)C(=O)N[C@@H](Cc1ccccc1)C(N)=O)C(C)C)[C@@H](C)O)C(C)C)C(C)C)C(C)C)[C@@H](C)O)C(C)C) [SEQ ID NO 869] | 6.19 nM | – |
| Ac-WVTH[Cit][Nva]AG[Nva][Nva]T[Cit]SGGVVRKNFVPTDVGPFAF-NH2 (SMILES CCC[C@H](NC(=O)CNC(=O)[C@H](C)NC(=O)[C@H](CCC)NC(=O)[C@H](CCCNC(N)=O)NC(=O)[C@H](Cc1c[nH]cn1)NC(=O)[C@@H](NC(=O)[C@@H](NC(=O)[C@H](Cc1c[nH]c2ccccc12)NC(C)=O)C(C)C)[C@@H](C)O)C(=O)N[C@@H](CCC)C(=O)N[C@H](C(=O)N[C@@H](CCCNC(N)=O)C(=O)N[C@@H](CO)C(=O)NCC(=O)NCC(=O)N[C@H](C(=O)N[C@H](C(=O)N[C@@H](CCCNC(=N)N)C(=O)N[C@@H](CCCCN)C(=O)N[C@@H](CC(N)=O)C(=O)N[C@@H](Cc1ccccc1)C(=O)N[C@H](C(=O)N1CCC[C@H]1C(=O)N[C@H](C(=O)N[C@@H](CC(=O)O)C(=O)N[C@H](C(=O)NCC(=O)N1CCC[C@H]1C(=O)N[C@@H](Cc1ccccc1)C(=O)N[C@@H](C)C(=O)N[C@@H](Cc1ccccc1)C(N)=O)C(C)C)[C@@H](C)O)C(C)C)C(C)C)C(C)C)[C@@H](C)O) [SEQ ID NO 873] | 63 nM | – |
| Ac-[1Nal]VTH[Cit]LAGLLS[Cit]SGGVVRKNFVPTDVGPFAF-NH2 (SMILES CC(=O)N[C@@H](Cc1cccc2ccccc12)C(=O)N[C@H](C(=O)N[C@H](C(=O)N[C@@H](Cc1c[nH]cn1)C(=O)N[C@@H](CCCNC(N)=O)C(=O)N[C@@H](CC(C)C)C(=O)N[C@@H](C)C(=O)NCC(=O)N[C@@H](CC(C)C)C(=O)N[C@@H](CC(C)C)C(=O)N[C@@H](CO)C(=O)N[C@@H](CCCNC(N)=O)C(=O)N[C@@H](CO)C(=O)NCC(=O)NCC(=O)N[C@H](C(=O)N[C@H](C(=O)N[C@@H](CCCNC(=N)N)C(=O)N[C@@H](CCCCN)C(=O)N[C@@H](CC(N)=O)C(=O)N[C@@H](Cc1ccccc1)C(=O)N[C@H](C(=O)N1CCC[C@H]1C(=O)N[C@H](C(=O)N[C@@H](CC(=O)O)C(=O)N[C@H](C(=O)NCC(=O)N1CCC[C@H]1C(=O)N[C@@H](Cc1ccccc1)C(=O)N[C@@H](C)C(=O)N[C@@H](Cc1ccccc1)C(N)=O)C(C)C)[C@@H](C)O)C(C)C)C(C)C)C(C)C)[C@@H](C)O)C(C)C) [SEQ ID NO 872] | 1.6 nM | – |
| Ac-WVTHRLAGLLSRPGGVVRKNFVPTDVGPFAF-NH2 (also: PEG-conjugated, in most cases at Lys25) [PEG-peptide of SEQ ID NO 860] | – | 16.7 nM |
| Ac-WVTH[Cit]LAGLLSRPGGVVRKNFVPTDVGPFAF-NH2 (SMILES CC(=O)N[C@@H](Cc1c[nH]c2ccccc12)C(=O)N[C@H](C(=O)N[C@H](C(=O)N[C@@H](Cc1c[nH]cn1)C(=O)N[C@@H](CCCNC(N)=O)C(=O)N[C@@H](CC(C)C)C(=O)N[C@@H](C)C(=O)NCC(=O)N[C@@H](CC(C)C)C(=O)N[C@@H](CC(C)C)C(=O)N[C@@H](CO)C(=O)N[C@@H](CCCNC(=N)N)C(=O)N1CCC[C@H]1C(=O)NCC(=O)NCC(=O)N[C@H](C(=O)N[C@H](C(=O)N[C@@H](CCCNC(=N)N)C(=O)N[C@@H](CCCCN)C(=O)N[C@@H](CC(N)=O)C(=O)N[C@@H](Cc1ccccc1)C(=O)N[C@H](C(=O)N1CCC[C@H]1C(=O)N[C@H](C(=O)N[C@@H](CC(=O)O)C(=O)N[C@H](C(=O)NCC(=O)N1CCC[C@H]1C(=O)N[C@@H](Cc1ccccc1)C(=O)N[C@@H](C)C(=O)N[C@@H](Cc1ccccc1)C(N)=O)C(C)C)[C@@H](C)O)C(C)C)C(C)C)C(C)C)[C@@H](C)O)C(C)C) [SEQ ID NO 868] | 3 nM | – |
| Ac-WVTHRLAGLLSRPGGVVRKNFVPTDVGPFAF-NH2 [SEQ ID NO 860] | 1.42 nM | – |
| Ac-WVTHRLAGLASRPGGVVRKNFVPTDVGPFAF-NH2 (also: PEG-conjugated, in most cases at Lys25) [PEG-peptide of SEQ ID NO 859] | – | 60.5 nM |
| Ac-WVTH[Cit]LAGLASRPGGVVRKNFVPTDVGPFAF-NH2 (also: PEG-conjugated, in most cases at Lys25) [PEG-peptide of SEQ ID NO 869] | – | 565 nM |
| Ac-[1Nal]VTH[Cit]LAGLLS[Cit]SGGVVRKNFVPTDVGPFAF-NH2 (also: PEG-conjugated, in most cases at Lys25) [PEG-peptide of SEQ ID NO 872] | – | 11 nM |
| Ac-WVTH[Cit]LAGLAS[Cit]SGGVVRKNFVPTDVGPFAF-NH2 (also: PEG-conjugated, in most cases at Lys25) [PEG-peptide of SEQ ID NO 870] | – | > 1000 nM |
| Ac-WVTH[Cit]LAGLAS[Cit]SGGVVRKNFVPTDVGPFAF-NH2 [SEQ ID NO 870] | 16.1 nM | – |
| WVTHXLAGLLSRSGGVVRKNFVPTDVGPFAF (Ac-WVTH[Cit]LAGLLSRSGGVVRKNFVPTDVGPFAF-NH2) [SEQ ID NO 861] | 0.57 nM | – |
| WVTHXLAGLLSRSGGVVRKNFVPTDVGPFAF (Ac-WVTH[Cit]LAGLLSRSGGVVRKNFVPTDVGPFAF-NH2; PEG-conjugated (Table 2C: in most cases at Lys^25)) [PEG-peptide of SEQ ID NO 861] | – | 2.08 nM |
| WVTHXLAGLLSXSGGVVXKNFVPTDVGPFAF (Ac-WVTH[Cit]LAGLLS[Cit]SGGVV[hArg]KNFVPTDVGPFAF-NH2; PEG-conjugated (Table 2C: in most cases at Lys^25)) [PEG-peptide of SEQ ID NO 871] | – | 3.22 nM |
| WVTHRLAGLLSXSGGVVRKNFVPTDVGPFAF (Ac-WVTHRLAGLLS[Cit]SGGVVRKNFVPTDVGPFAF-NH2) [SEQ ID NO 862] | 0.58 nM | – |
| WVTHRLAGLLSXSGGVVRKNFVPTDVGPFAF (Ac-WVTHRLAGLLS[hArg]SGGVVRKNFVPTDVGPFAF-NH2; PEG-conjugated (Table 2C: in most cases at Lys^25)) [PEG-peptide of SEQ ID NO 864] | – | 0.33 nM |
| WVTHRLAGLLSXSGGVVRKNFVPTDVGPFAF (Ac-WVTHRLAGLLS[hArg]SGGVVRKNFVPTDVGPFAF-NH2) [SEQ ID NO 864] | 0.57 nM | – |
| WVTHXLAGLLSXSGGVVRKNFVPTDVGPFAF (Ac-WVTH[NMeArg]LAGLLS[NMeArg]SGGVVRKNFVPTDVGPFAF-NH2) [SEQ ID NO 875] | 1.63 nM | – |
| WVTHXLAGLLSXSGGVVRKNFVPTDVGPFAF (Ac-WVTH[hArg]LAGLLS[hArg]SGGVVRKNFVPTDVGPFAF-NH2) [SEQ ID NO 866] | 2.1 nM | – |
| WVTHXLAGLLSXSGGVVXKNFVPTDVGPFAF (Ac-WVTH[Cit]LAGLLS[Cit]SGGVV[hArg]KNFVPTDVGPFAF-NH2) [SEQ ID NO 871] | 0.41 nM | – |
| WVTHRXAGLLSRXGGVVRKNFVPTDVGPFAF (Ac-WVTHR[NMeLeu]AGLLSR[NMeSer]GGVVRKNFVPTDVGPFAF-NH2; PEG-conjugated (Table 2C: in most cases at Lys^25)) [PEG-peptide of SEQ ID NO 874] | – | 208 nM |
| WVTHXLAGLLSRSGGVVRKNFVPTDVGPFAF (Ac-WVTH[hArg]LAGLLSRSGGVVRKNFVPTDVGPFAF-NH2; PEG-conjugated (Table 2C: in most cases at Lys^25)) [PEG-peptide of SEQ ID NO 865] | – | 0.36 nM |
| WVTHRXAGLLSRXGGVVRKNFVPTDVGPFAF (Ac-WVTHR[NMeLeu]AGLLSR[NMeSer]GGVVRKNFVPTDVGPFAF-NH2) [SEQ ID NO 874] | 2.92 nM | – |
| WVTHXLAGLLSXSGGVVRKNFVPTDVGPFAF (Ac-WVTH[hArg]LAGLLS[hArg]SGGVVRKNFVPTDVGPFAF-NH2; PEG-conjugated (Table 2C: in most cases at Lys^25)) [PEG-peptide of SEQ ID NO 866] | – | 0.37 nM |
| WVTHRLAGLLSXSGGVVRKNFVPTDVGPFAF (Ac-WVTHRLAGLLS[Cit]SGGVVRKNFVPTDVGPFAF-NH2; PEG-conjugated (Table 2C: in most cases at Lys^25)) [PEG-peptide of SEQ ID NO 862] | – | 0.96 nM |
| WVTHXLAGLLSRSGGVVRKNFVPTDVGPFAF (Ac-WVTH[hArg]LAGLLSRSGGVVRKNFVPTDVGPFAF-NH2) [SEQ ID NO 865] | 0.44 nM | – |
| Ac-WVTH[Cit]LAGLLSRPGGVVRKNFVPTDVGPFAF-NH2 (also: PEG-conjugated, in most cases at Lys25) [PEG-peptide of SEQ ID NO 868] | – | 108 nM |
| Ac-WVTHRLAGLLSRSGGVVRKNFV[Tic]TDVGPFAF-NH2 (SMILES CC(=O)N[C@@H](Cc1c[nH]c2ccccc12)C(=O)N[C@H](C(=O)N[C@H](C(=O)N[C@@H](Cc1c[nH]cn1)C(=O)N[C@@H](CCCNC(=N)N)C(=O)N[C@@H](CC(C)C)C(=O)N[C@@H](C)C(=O)NCC(=O)N[C@@H](CC(C)C)C(=O)N[C@@H](CC(C)C)C(=O)N[C@@H](CO)C(=O)N[C@@H](CCCNC(=N)N)C(=O)N[C@@H](CO)C(=O)NCC(=O)NCC(=O)N[C@H](C(=O)N[C@H](C(=O)N[C@@H](CCCNC(=N)N)C(=O)N[C@@H](CCCCN)C(=O)N[C@@H](CC(N)=O)C(=O)N[C@@H](Cc1ccccc1)C(=O)N[C@H](C(=O)N1Cc2ccccc2C[C@H]1C(=O)N[C@H](C(=O)N[C@@H](CC(=O)O)C(=O)N[C@H](C(=O)NCC(=O)N1CCC[C@H]1C(=O)N[C@@H](Cc1ccccc1)C(=O)N[C@@H](C)C(=O)N[C@@H](Cc1ccccc1)C(N)=O)C(C)C)[C@@H](C)O)C(C)C)C(C)C)C(C)C)[C@@H](C)O)C(C)C) [SEQ ID NO 876] | 2.33 nM | – |
